B1: BBSome complex member BBS2 (Homo sapiens), Q9BXC9 (parent)
chain: MLLPVFTLKLRHKISPRMVAIGRYDGTHPCLAAATQTGKVFIHNPHTRNQHVSASRVFQSPLESDVSLLSINQAVSCLTAGVLNPELGYDALLVGTQTNLLAYDVYNNSDLFYREVADGANAIVLGTLGDISSPLAIIGGNCALQGFNHEGSDLFWTVTGDNVNSLALCDFDGDGKKELLVGSEDFDIRVFKEDEIVAEMTETEIVTSLCPMYGSRFGYALSNGTVGVYDKTSRYWRIKSKNHAMSIHAFDLNSDGVNELITGWSNGKVDARSDRTGEVIFKDNFSSAIAGVVEGDYRMDGHIQLICCSVDGEIRGYLPGTAEMRGNLMDTSAEQDLIRELSQKKQNLLLELRNYEENAKAELASPLNEADGHRGIIPANTRLHTTLSVSLGNETQTAHTELRISTSNDTIIRAVLIFAEGIFTGESHVVHPSIHNLSSSICIPIVPPKDVPVDLHLKAFVGYRSSTQFHVFESTRQLPRFSMYALTSLDPASEPISYVNFTIAERAQRVVVWLGQNFLLPEDTHIQNAPFQVCFTSLRNGGHLHIKIKLSGEITINTDDIDLAGDIIQSMASFFAIEDLQVEADFPVYFEELRKVLVKVDEYHSVHQKLSADMADHSNLIRSLLVGAEDARLMRDMKTMKSRYMELYDLNRDLLNGYKIRCNNHTELLGNLKAVNQAIQRAGRLRVGKPKNQVITACRDAIRSNNINTLFKIMRVGTASS
partner: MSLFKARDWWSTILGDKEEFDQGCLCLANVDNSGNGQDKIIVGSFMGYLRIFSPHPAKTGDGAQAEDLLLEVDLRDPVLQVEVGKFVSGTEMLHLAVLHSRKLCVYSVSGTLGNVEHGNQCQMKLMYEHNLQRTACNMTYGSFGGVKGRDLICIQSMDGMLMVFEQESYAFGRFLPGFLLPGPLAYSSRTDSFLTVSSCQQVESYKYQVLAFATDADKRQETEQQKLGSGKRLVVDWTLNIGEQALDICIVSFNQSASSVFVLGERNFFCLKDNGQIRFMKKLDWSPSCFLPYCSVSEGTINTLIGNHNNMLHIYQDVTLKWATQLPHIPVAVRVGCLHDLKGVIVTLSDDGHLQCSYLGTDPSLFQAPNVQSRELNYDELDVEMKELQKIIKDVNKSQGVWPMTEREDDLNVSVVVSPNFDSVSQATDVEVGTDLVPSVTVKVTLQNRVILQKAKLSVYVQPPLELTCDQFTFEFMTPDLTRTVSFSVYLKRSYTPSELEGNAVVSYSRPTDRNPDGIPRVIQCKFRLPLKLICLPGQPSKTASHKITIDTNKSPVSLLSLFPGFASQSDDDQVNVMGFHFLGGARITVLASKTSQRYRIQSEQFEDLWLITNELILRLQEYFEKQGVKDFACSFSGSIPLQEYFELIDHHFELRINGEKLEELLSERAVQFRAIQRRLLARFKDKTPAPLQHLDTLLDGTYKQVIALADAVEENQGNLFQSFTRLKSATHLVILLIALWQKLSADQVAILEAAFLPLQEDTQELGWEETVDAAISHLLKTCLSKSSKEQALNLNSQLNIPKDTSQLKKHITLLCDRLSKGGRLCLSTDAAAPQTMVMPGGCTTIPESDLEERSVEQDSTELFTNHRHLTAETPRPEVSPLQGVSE

Variants of: B1
Conditions: with pthb1_human BBS9, Q3SYG4

| effect of a mutation on the interaction | Variant |
| --- | --- |
| with no effect | N354A |
| with no effect | N354K |
| with no effect | N354E |
| with no effect | E357K |
| with no effect | E357A |
| with no effect | K345A |
| with no effect | K345E |
| with no effect | E351K |
| with no effect | E351A |
| with no effect | A364E |
| with no effect | A364K |
| with no effect | L348A |
| with no effect | L348E |
| with no effect | L348K |
| with no effect | A361E |
| with no effect | A361K |
| with no effect | L363E |
| with no effect | L363A |
| with no effect | L363K |
| with no effect | Q346E |
| with no effect | Q346A |
| with no effect | Q346K |
| with no effect | L350K |
| with no effect | L350E |
| with no effect | L350A |
| with no effect | E362A |
| disrupting interaction strength | E362Y |
| with no effect | E362K |

| effect of a mutation on the interaction | Variant |
| --- | --- |
| with no effect | L352K |
| with no effect | L352E |
| with no effect | L352A |
| with no effect | N358K |
| with no effect | N358A |
| with no effect | N358E |
| with no effect | N347A |
| with no effect | N347K |
| with no effect | N347E |
| with no effect | R353K |
| with no effect | R353E |
| with no effect | R353A |
| with no effect | K360A |
| with no effect | K360E |
| with no effect | L349E |
| with no effect | L349A |
| with no effect | L349K |
| with no effect | A359E |
| with no effect | A359K |
| with no effect | Y355A |
| with no effect | Y355E |
| with no effect | Y355K |
| disrupting interaction strength | E356L |
| disrupting interaction strength | E356S |
| with no effect | E356K |
| disrupting interaction strength | E356P |
| with no effect | E356A |

Further lines, the variant ahead of its results:

| Variant | effect of a mutation on the interaction |
| --- | --- |
| D336K | with no effect |
| D336A | with no effect |
| D336E | with no effect |
| S342A | with no effect |
| S342K | with no effect |
| S342E | with no effect |
| K344E | with no effect |
| K344A | with no effect |
| E340A | with no effect |
| E340K | with no effect |
| E334A | with no effect |
| E334K | with no effect |
| L341E | with no effect |
| L341K | with no effect |
| L341A | with no effect |
| T331E | with no effect |
| T331K | with no effect |
| Q335A | with no effect |
| Q335E | with no effect |

| Variant | effect of a mutation on the interaction |
| --- | --- |
| Q335K | with no effect |
| Q343K | with no effect |
| Q343E | with no effect |
| Q343A | with no effect |
| R339E | with no effect |
| R339A | with no effect |
| R339K | with no effect |
| S332E | with no effect |
| S332K | with no effect |
| S332A | with no effect |
| A333E | with no effect |
| A333K | with no effect |
| I338E | with no effect |
| I338A | with no effect |
| I338K | with no effect |
| L337K | with no effect |
| L337A | with no effect |
| L337E | with no effect |

Reference: IntAct's records for PubMed 29039417
